This is an account of results in patent US20240343811A1 (SHANDONG SIMCERE BIOPHARMACUTICAL, published 2024).

For assay [1], the target named is T1, human CD16a (158F), full length, on FlpinCHO cells (human, UniProt P08637 17-254). In words: FACS on FlpinCHO cells. Put shortly: (§1)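 Trypsinised cells in PBS + 2% BSA were incubated on ice for 1 hour with antibody at a range of concentrations. After washes, mean fluorescence intensity was read by flow cytometry. EC50 values were derived by curve fitting of MFI.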

In assay [2] the target is T2, human CD16a (158V), full length, on cells (human, UniProt P08637 17-254).
T2 construct: also used as target for the bought Jurkat-NFAT reporter line stably expressing human CD16a (158V); also called FlpinCHO-human CD16a (158V); FlpinCHO-CD16a (158V)
In words: FACS on FlpinCHO cells. Put shortly: as §1

Assay [3] addresses T3, human CD16b (NA1), full length, on FlpinCHO cells (human, UniProt O75015 17-200).
T3 construct: also called FlpinCHO-human CD16b (NA1)
T3 chain: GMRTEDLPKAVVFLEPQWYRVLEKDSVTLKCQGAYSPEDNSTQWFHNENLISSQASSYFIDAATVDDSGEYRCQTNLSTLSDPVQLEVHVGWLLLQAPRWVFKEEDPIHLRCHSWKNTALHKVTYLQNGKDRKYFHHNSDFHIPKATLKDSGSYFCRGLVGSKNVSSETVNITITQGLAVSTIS
Put plainly: FACS on FlpinCHO cells. The procedure, abridged:
(§2)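 Trypsin-detached FlpinCHO cells expressing full-length CD16b were blocked in PBS+2% BSA and incubated on ice for 1 hour with antibody at varying concentrations. Binding read by flow cytometry as MFI; EC50 from curve fitting.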

The target in assay [4] is T4, human CD16b (NA2), full length, on FlpinCHO cells (human, UniProt O75015 17-200).
T4 construct: also called FlpinCHO-human CD16b (NA2)
T4 chain: T3 chain with R20S, N49S, D66N, V90I
Put plainly: FACS on FlpinCHO cells. The procedure, abridged: as §2

In assay [5] the target is T5, CD16 on primary human NK cells (human, UniProt P08637 17-254).
T5 construct: whole, on cells; also called resting NK cells
In words: FACS on human NK cells. The method, then:
(§3) The required cells were scale-up cultured in a T-75 cell culture flask to the logarithmic growth phase. The medium was aspirated, and the cells were washed twice with a PBS buffer and then digested with trypsin. After the digestion was terminated, the cells were washed twice with the PBS buffer. The cells were counted, and then the cell pellet was resuspended with a [PBS+2% (w/w) BSA] blocking solution to 2×10⁶ cells/ml, and added to a 96-well FACS reaction plate at 50 μl/well. […] 50 μl/well of the antibody to be detected was added at different concentrations, and incubated on ice for 1 hour. […] The mixture was centrifuged and washed 5 times with PBS, and FACS (FACS Canto II, purchased from BD Company) was used for detection and result analysis. Data analysis was performed by software (CellQuest) to obtain the mean fluorescence intensity (MFI) of the cells. Then, software (GraphPad Prism8) was used for analysis, data fitting and EC50 value calculation.
The binding of an antibody to be detected to freshly prepared human NK cells (Milestone Biotechnologies, catalog number: PB56-N-Custom) was detected according to the method of Example 3.1.

The target in assay [6] is T2, human CD16a (158V), full length, on …. Put plainly: cell-based or functional assay.
Assay [7] has as its target T1, human CD16a (158F), full length, on …. Put plainly: FACS, biotinylated antibody.
Assay [8] addresses T2, human CD16a (158V), full length, on …. Put plainly: FACS, biotinylated antibody.
For a further assay, the target named is T6, Human CD16a (158F)-his (human).
T6 construct: entry holds ECD, AVI tag, linker and His tag
In words: SPR (Biacore), antibody captured on Protein A. Put shortly:
(§4)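 Protein A–captured antibody was probed with CD16-his ECD in HBS-EP+ at 25 °C: five 2-fold dilutions from 200 nM, 240 s at 30 μL/min, dissociation up to 600 s. Glycine pH 1.5 regenerated the chip. Apparent KD came from a double-referenced 1:1 Langmuir fit.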

In the next assay the target is T7, Human CD16a (158V)-his (human).
T7 construct: entry holds ECD, AVI tag, linker and His tag
In words: SPR (Biacore), antibody captured on Protein A. Put shortly: as §4
(In general: Surface plasmon resonance follows binding to a sensor surface in real time, without labels.)

In the next assay the target is T8, Human CD16b (NA1)-his (human).
T8 construct: entry holds ECD, linker, His tag and AVI tag
T8 chain: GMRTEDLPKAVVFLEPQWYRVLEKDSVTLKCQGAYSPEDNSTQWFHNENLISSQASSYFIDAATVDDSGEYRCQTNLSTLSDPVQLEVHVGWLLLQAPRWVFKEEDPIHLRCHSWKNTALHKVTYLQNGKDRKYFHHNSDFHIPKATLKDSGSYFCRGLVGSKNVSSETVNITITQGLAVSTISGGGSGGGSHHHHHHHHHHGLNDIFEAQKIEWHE
In words: SPR (Biacore), antibody captured on Protein A. The procedure, abridged:
as §4

Assay [9] deals with T1, human CD16a (158F), full length, on …. Put plainly: FACS, biotinylated antibody, +10 mg/mL human immunoglobulin. On the technique in general: A flow cytometer gives signals particle by particle.
The target of assay [10] is T2, human CD16a (158V), full length, on …. Described as above.
Assay [11] has as its target T1, human CD16a (158F), full length, on …. Put plainly: FACS on FlpinCHO cells. The method, then:
as §3
(§5) The binding of a humanized antibody to FlpinCHO-human CD16a cells was detected according to the method of Example 3.1.
This is another data set of the same source.

Assay [12] concerns the target T2, human CD16a (158V), full length, on …. In words: FACS on FlpinCHO cells. The method, then: as §3, §5
The source holds these as a separate data set.

Assay [13] deals with T3, human CD16b (NA1), full length, on …. Put plainly: FACS on FlpinCHO cells. The method, then:
as §3
(§6) The binding of an antibody to be detected to FlpinCHO-human CD16b cells was detected according to the method of Example 3.1.

The target of assay [14] is T4, human CD16b (NA2), full length, on …. In words: FACS on FlpinCHO cells. The method, then: as §3, §6
Assay [15] addresses T9, cynomolgus monkey CD16, full length, on FlpinCHO cells (cynomolgus monkey, UniProt Q8SPW2 17-254).
T9 construct: also called FlpinCHO-cyno CD16; Flipin CHO-cyno CD16
In words: FACS on FlpinCHO cells. The method, then: as §3
Flipin CHO-cyno CD16 cells were subjected to FACS detection and data analysis according to the method of Example 3.1.

Assay [16] deals with T2, human CD16a (158V), full length, on …. In words: cell-based or functional assay. This is another data set of the same source.

Residue numbers refer to the chain shown, from its start. Like-named read-outs stand apart in the source and are kept apart here.

T9 sequence (Q8SPW2 other isoform, or with tags, fused parts or gaps limits assumed): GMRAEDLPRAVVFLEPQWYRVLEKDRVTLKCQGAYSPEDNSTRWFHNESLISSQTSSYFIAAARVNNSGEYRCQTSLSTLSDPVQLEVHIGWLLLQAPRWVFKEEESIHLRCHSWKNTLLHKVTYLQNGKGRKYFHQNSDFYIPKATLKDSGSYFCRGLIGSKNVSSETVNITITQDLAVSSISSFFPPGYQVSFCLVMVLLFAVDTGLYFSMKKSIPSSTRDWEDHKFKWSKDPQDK

B1: VHH04 VHH-Fc antibody (Fc fusion)
chain: QVQLVESGGGLVQAGGSLRLSCVGSSSTLTTYAVRWYRQAPGKQREWVAFISVDGNTNYPDSVKGRFIVSRDNAKNTVYLQMNNLKPEDTADYICRAGGQYWGQGTQVTVSSEPKSSDKTHTCPPCPAPEFEGGPSVFLFPPKPKDTLMISRTPEVTCVVVAVSHEDPEVKFNWYVDGVEVHNAKTKPREEQYNSTYRVVSVLTVLHQDWLNGKEYKCKVSNKALPAPIEKTISKAKGQPREPQVYTLPPSREEMTKNQVSLTCLVKGFYPSDIAVEWESNGQPENNYKTTPPVLDSDGSFFLYSKLTVDKSRWQQGNVFSCSVMHEALHNHYTQKSLSLSPGK
By EC50 is commonly meant the concentration at which the effect is half-maximal. In general, Kd refers to the free concentration of one partner at which half of the binding sites on the other are occupied at equilibrium, for simple one-to-one binding. As a reminder, the koff is the rate constant with which the complex falls apart. As usually defined, the kon is a measure of how fast the partners come together. With B1, the EC50 in assay [1] turned out to be 0.66 nM; in [2] it was 0.68 nM; in [3], 1.33 nM; in assay [5] it was 0.74 nM; in assay [7], 0.32 nM; in assay [8] it was 0.65 nM. Also, the EC50 in assay [9] and in [10] was 1.51 nM in each case. In addition, the “Maximum mean fluorescence intensity” value in assay [1] was 7240; in assay [2] it was 7660; in assay [3], 41400; in [4] it was 351; in assay [5], 2430; in assay [7] it was 6160. Also, the “Maximum mean fluorescence intensity” value in assay [8] was 9200; in assay [9], 7580; in [10] it was 10400. Also, the binding result in [4] is reported as “no binding (tested: 100 nM)”. In assay [6], the “EC50, activation activity for Jurkat cell” value (shortened to “EC50, activation activity”) stood at 0.03 nM. The molecule also gave a Maximum fluorescence value in [6] of 161000. For the same molecule, the values for the Kd with Human CD16a (158F)-his, with Human CD16a (158V)-his and with Human CD16b (NA1)-his were 23.4 nM, 8.93 nM and 21.6 nM, respectively. Further, the koff stood at 0.00128 s⁻¹ in the assay with Human CD16a (158F)-his, 0.000738 s⁻¹ with Human CD16a (158V)-his and 0.00265 s⁻¹ with Human CD16b (NA1)-his. The kon came to 54700 M⁻¹ s⁻¹ in the assay with Human CD16a (158F)-his, 82600 M⁻¹ s⁻¹ in the assay with Human CD16a (158V)-his and 122000 M⁻¹ s⁻¹ in the assay with Human CD16b (NA1)-his.

B2: VHH12-04 humanized VHH-Fc antibody (Fc fusion)
chain: EVQLVESGGGLVQPGGSLRLSCAASGITFSSYAMGWYRQAPGKQRELVAAINRFGLTNYADFVKGRFTISRDNAKNSLYLQMNSLRAEDTAVYYCNTGGVYSHPDYYTGTYWGQGTMVTVSSEPKSSDKTHTCPPCPAPEEFGGPSVFLFPPKPKDTLMISRTPEVTCVVVAVSHEDPEVKFNWYVDGVEVHNAKTKPREEQYNSTYRVVSVLTVLHQDWLNGKEYKCKVSNKALPAPIEKTISKAKGQPREPQVYTLPPSREEMTKNQVSLTCLVKGFYPSDIAVEWESNGQPENNYKTTPPVLDSDGSFFLYSKLTVDKSRWQQGNVFSCSVMHEALHNHYTQKSLSLSPGK
For the molecule B2, in assay [11], it took 0.47 nM to reach a half-maximal effect (EC50) and the “Maximum mean fluorescence intensity” value is 9410. Further, in assay [12], the EC50 came to 0.47 nM and the “Maximum mean fluorescence intensity” value was found to be 8090. Also, in assay [13], the EC50 was found to be 1.37 nM and the “Maximum mean fluorescence intensity” value turned out to be 47200. Further, the “Maximum mean fluorescence intensity” value in assay [14] amounted to 75400. In assay [15], the EC50 was 0.64 nM and the “Maximum mean fluorescence intensity” value was 18300. In addition, in [16], the “EC50, activation activity” value turned out to be 0.01 nM and the Maximum fluorescence value worked out at 162000. Further, in the assay with Human CD16a (158F)-his, the Kd was found to be 50.5 nM, the koff turned out to be 0.0307 s⁻¹ and the kon is 607000 M⁻¹ s⁻¹.

B3: VHH12-03 humanized VHH-Fc antibody (Fc fusion)
chain: B2 chain with A60V, F62S
Turning to B3, the EC50 in assay [11] turned out to be 0.48 nM; in [12], 0.48 nM; in assay [13] it was 1.37 nM; in assay [15] it was 0.8 nM. Moreover, the “Maximum mean fluorescence intensity” value in [11] was 8810; in assay [12], 7750; in assay [13], 47300; in assay [14] it was 72700; in assay [15], 18000. In addition, the “EC50, activation activity” value in assay [16] is 0.02 nM. The Maximum fluorescence value in [16] amounted to 155000. For the same molecule, the Kd in the assay with Human CD16a (158F)-his is 55.7 nM. The dissociation rate constant (koff) with Human CD16a (158F)-his came out at 0.0244 s⁻¹. This molecule yielded a kon with Human CD16a (158F)-his of 438000 M⁻¹ s⁻¹.

B4: VHH12-07 humanized VHH-Fc antibody (Fc fusion)
chain: B2 chain with A60V, F62S, M117Q
Take B4: in [11], the EC50 came to 0.46 nM and the “Maximum mean fluorescence intensity” value was 9180. In addition, in assay [12], the response was half-maximal at 0.48 nM (EC50) and the “Maximum mean fluorescence intensity” value came out at 7950. In assay [13], it took 1.25 nM to reach a half-maximal effect (EC50) and the “Maximum mean fluorescence intensity” value was 45500. The “Maximum mean fluorescence intensity” value in assay [14] came to 73200. For the same molecule, in assay [15], it took 0.68 nM to reach a half-maximal effect (EC50) and the “Maximum mean fluorescence intensity” value was found to be 18500. For the same molecule, in assay [16], the “EC50, activation activity” value amounted to 0.03 nM and the Maximum fluorescence value is 153000. In addition, in the assay with Human CD16a (158F)-his, the Kd worked out at 55.8 nM, the koff was determined as 0.032 s⁻¹ and the kon was 574000 M⁻¹ s⁻¹.

B5: VHH12-08 humanized VHH-Fc antibody (Fc fusion)
chain: B2 chain with D72V
Consider B5, for which the EC50 was determined as 0.31 nM in assay [11], 0.32 nM in assay [12], 0.98 nM in assay [13] and 0.44 nM in assay [15]. In addition, the “Maximum mean fluorescence intensity” value was 9010 in assay [11]; 7920 in assay [12]; 52100 in assay [13]; 77300 in [14]; 18300 in assay [15]. Besides, the “EC50, activation activity” value in assay [16] was 0.01 nM. Also, in assay [16], the Maximum fluorescence value was 142000. Binding with Human CD16a (158F)-his was put at a Kd of 48.6 nM. Moreover, the koff with Human CD16a (158F)-his came out at 0.0294 s⁻¹. Further, the kon with Human CD16a (158F)-his amounted to 605000 M⁻¹ s⁻¹.
